Reference: patent publication US20230079150A1, “METHODS FOR PREVENTION OR TREATMENT OF VIRUS-INDUCED ORGAN INJURY OR FAILURE WITH IL-22 DIMER” (priority 2020, published 2023)

What was measured:
[1] = tested on: H1N1 influenza (A/PR8 strain); type: in vivo, C57BL/6 mice
[2] = tested on: H1N1 influenza (A/PR8 strain); type: in vivo, C57BL/6 mice; remark: listed apart in the source
IL-22Ra1 = IL-22Ra1 receptor immunofluorescence in HUVECs; type: cell-based, human
Method: HUVECs were fixed in 3.5% formaldehyde in PBS for 10 minutes. Cells were then blocked in 1% BSA in PBS for one hour. Cells were then incubated overnight in primary antibody for IL-22Ra1 (Invitrogen, Carlsbad, Calif.) diluted 1:100 in 1% BSA in PBS. Cells were then washed with PBS 3 times. Cells were incubated with secondary antibody, goat anti-mouse Alexa Fluor 488 (1:500; Invitrogen, A28175) diluted 1:500 in 1% BSA in PBS along with 0.1 μg/ml of 4,6 diamidino-2phylindole (DAPI) (Sigma) for one hour, followed by three washes in PBS. Cells were then cover slipped with Fluoro Gel mounting medium and imaged on an EVOS fluorescence microscope. Fluorescence intensity was quantified using ImageJ.

C57BL/6 mice = test: LPS acute lung injury mouse model: lung RNA-seq pathway analysis; type: in vivo; details: high-dose LPS injury; lung tissue
Method: After approval from the Tulane University, Institutional Animal Care and Use Committee (protocol ID 607), equal numbers of male and female, 6-8 week old C57BL/6 mice (Charles River Laboratories, Cambridge, Mass.) were given acute lung injury (ALI) via intra-tracheally administered LPS. After obtaining appropriate depth of anesthesia using isoflurane, the high-dose LPS group (HDG) received 100 μg of LPS administered intra-tracheally. Approximately 30 minutes after LPS administration, 4 μg of F-652 was administered via tail vein injection (n=11), then compared to animals receiving sham injection (n=8) with phosphate-buffered saline (PBS). […]
Lung tissue was homogenized in Trizol buffer (Life Technologies) and total RNA extraction was performed according to Trizol manufacturer's instructions. […] RNA quantity and quality were assessed using NanoDrop and Agilent RNA ScreenTape with Agilent 4150 TapeStation system. SMART-Seq Stranded total RNA sample prep kit (Takara Bio USA, Inc.) was used for library preparation as specified in the user manual, followed by Agilent DNA 1000 kit validation with Agilent 4150 TapeStation system and quantification by Qubit 2.0 fluorometer. […] Cluster generation and 1×75 bp single read single-indexed sequencing was performed by High-Output kit v2.5 (75 cycles) on Illumina NextSeq 550. Raw reads were processed and mapped. […]

[3] = tested on: Human umbilical vein endothelial cells (HUVEC); test: Glycocalyx quantification (WGA staining) in HUVECs with or without LPS; type: cell-based
Method: Human umbilical vein endothelial cells (HUVEC) were purchased from the American Type Culture Collection. Cells were initially grown in 2% gelatin-coated 10-cm plastic dishes using M200 medium supplemented with low serum growth supplement (LSGS) and penicillin/streptomycin in a cell culture incubator at 37° C. with 5% CO2 atmosphere. Cells were passaged by digestion in 0.25% trypsin in Hanks' Balanced Salt Solution (HBSS) after reaching 80% confluence. Cells were used for experiments between passages 1-3. For glycocalyx quantification, HUVECs were plated in 48-well plastic cell culture plates coated with 2% gelatin, at a confluence of approximately 80%. M200+LSGS+penicillin/streptomycin was supplemented with 1% bovine serum albumin (BSA) to support glycocalyx growth. Cells were cultured for 24 hours to allow glycocalyx development before LPS exposure.
After completion of the LPS exposure with or without F-652, HUVECs were fixed by addition of concentrated formaldehyde solution directly to the culture medium to yield a final formaldehyde concentration of 3.5%. […] Glycocalyx and nuclei (4′,6-diamidino-2-phenylindole) were imaged on an EVOS fluorescence microscope under identical conditions. […] ImageJ software was used to quantify glycocalyx fluorescence intensity overlaying the nuclei of each visible cell.

B1: F-652: recombinant IL-22 dimer consisting of two monomeric subunits each comprising a sequence shown in SEQ ID NO: 24 (protein)
chain 1: APISSHCRLDKSNFQQPYITNRTFMLAKEASLADNNTDVRLIGEKLFHGVSMSERCYLMKQVLNFTLEEVLFPQSDRFQPYMQEVVPFLARLSNRLSTCHIEGDDLHIQRNVQKLKDTVKKLGESGEIKAIGELDLLFMSLRNACIGSGGGSGGGGSGGGGSVECPPCPAPPVAGPSVFLFPPKPKDTLMISRTPEVTCVVVDVSHEDPEVQFNWYVDGVEVHNAKTKPREEQFNSTFRVVSVLTVVHQDWLNGKEYKCKVSNKGLPASIEKTISKTKGQPREPQVYTLPPSREEMTKNQVSLTCLVKGFYPSDIAVEWESNGQPENNYKTTPPMLDSDGSFFLYSKLTVDKSRWQQGNVFSCSVMHEALHNHYTQKSLSLSPGK
chain 2: B1 chain 1
modifications: homodimer
Q: What does the source list for B1?
A: influenza specific CD8+ T cells (Total CD8+) compared to PBS control ([1]; aged mice, 3-week treatment): significantly decreased; lung infiltrating neutrophils and inflammatory monocytes compared to 3-week F-652 treatment ([1]; aged mice, 6-week F-652 treatment): even more decrease; lung infiltrating neutrophils and inflammatory monocytes compared to PBS control ([1]; aged mice, F-652 200 μg/kg weekly for 3 weeks, Days 62-65 post-infection): decreased significantly; CD8+ T cells expressing CD69+ or CD69+/CD103+ compared to PBS control ([1]; both young and aged hosts): decreased significantly; total number of CD8+ T cells ([1]; young mice, 3-week treatment): no significant difference; lung infiltrating neutrophils or inflammatory monocytes, PBS vs F-652 ([1]; young mice, treated for 3 weeks or 6 weeks): no significant difference; tissue dampening (G) by FOT ([2]; aged H1N1 infected mice, baseline/tidal breathing, 3-week treatment): less resistance in small airways; static compliance (Cst) from PV loops relative to PBS controls ([2]; aged mice): increased static compliance; impedance following maximization of available lung volume ([2]; following airway recruitment maneuver, aged and young): has no effect; IL-22Ra1 receptor expression compared to control (IL-22Ra1; F-652 alone): did not result in a difference; IL-22Ra1 receptor relative expression (IL-22Ra1; LPS and F-652, control 1.00): 0.69 RE; Macrophage Inflammatory Protein-1β (CCL4) expression (RNA-seq) (C57BL/6 mice): decrease; Tnc, COL1a1, Col6a3 and Col1a2 expression (RNA-seq) (C57BL/6 mice): increased; glycocalyx staining intensity ([3]; 0.375 μg/mL F-652 alone, 24 hours, control 6.09): 5.08 AU; glycocalyx staining intensity ([3]; 1 μg/mL LPS and 0.375 μg/mL F-652, 24 hours, control 6.09, LPS 5.10): 5.86 AU
